Assay: label from the status in PepcDB records

Sequence | protein production
IRHEITSRTSVSVLVNRCNWFCTSPKCSGLTVMGCLCVAMSVAKKDKPTMSVTALINWARPLPPGQQQQPMTPTSPGNMLQPMATPSNLPTVDCSLDIQWLNLEGGFMSPMSPPEMKPDTAMLDGLRDDSTPPPAFKNYPPNHPLSGSKHLCSICGDRASGKHYGVYSCEGCKGFFKRTVRKDLTYACREERNCIIDKRQRNRCQYCRYQKCLACGMKREAVQEERQRAARGTEDAHPSSSVQVQELSIERLLEMESLVADPSEEFQFLRVGPDSNVPPKFRAPVSSLCQIGNKQIAALVVWARDIPHFSQLEMEDQILLIKGSWNELLLFAIAWRSMEFLTEERDGVDGTGNRTTSPPQLMCLMPGMTLHRNSALQAGVGQIFDRVLSELSLKMRTLRVDQAEYVALKAIILLNPDVKGLKNRQEVEVLREKMFLCLDEYCRRSRSSEEGRFAALLLRLPALRSISLKSFEHLFFFHLVADTSIAGYIRDALRNHAPPIDTNMM | not failed
MASNSRSSISPWTFSQNKMFERALAVYDKDTPDRWHNVAKAVGGKTVEEVKRHYDILVEDLINIETGRVPLPNYKTFESNSRSINDFDTRYITKYLYMMLSIYFDNHSSDFEKFSQKVLVSYISLV | failed
MSFIRTFYGDIAPEQLGFTYSHEHIVCVPAYWQERDADDLLLDDKEKSQLDVQDFADLGGKTIVDATAVDYGRRVLDVAQISKETGIQIVGTAGFNKSFLWDGKIKPELKPIIGDFETYYEWIENTSIDKLTEFVVNEVENGLEGTPYKAGQVKFGTGYNMITPLEEKTIRAVARAHHETKAPIHSHTEAGTMALEQIEILKQENIPLEYLSIGHMDRNLDPYYHKQVAKTGAFMSFDGIAKIKYAPESARIAAILYLVSEGFEDQILVSGDTARKTYYKHYGHGPGLEYIAKKWVPRFIDEANEKGFDGEKLVKKFFVDNPARCFTFKK | failed
GSESFDILTDPAQAKEVGTALGIFHQLLSDLSPSQLVDTLPGFHHTPIYLQQYQRALAQNPKLTGSLGPEINHCQRVIKTWLDQCGVLETAKAQGQLPLRLMHGDPKVNNILFDRQSGKAVSVIDLDTTKPGLIHYDLGDCLRSGCNLLGEETENWSAVEFDLDLCRAILEGYLPQCQHFLTAADYDYLCPAIVLISFELGLRFFTDYLNGDRYFKVKYPEHNLIRALVQFQLASHIQSQEDAIRRMIEDIRG | failed
AIYVDLPNRQLKVKVADRRVISTTDAERQAVTPPGLQEAINDLVKKYTLARAFVRPSGTEDIVRVYAEANSQESADRLAYEVSLLVFQLAGGIGERPQP | not failed
MLTFETLCQWHRAWLGNVYSWAGQSRTVDMSKPNIRFASPVQIPKLAEKFEARYLPRFAELPEMTDEELVAFLAEVHVEFILIHPFREGNGRISRLLLDVMAAKAGAEPLDYSLWDEHKDFYFKAIQAGRDGDYQHVERLIRDVLEAQQLEHHHHHH | failed
MRRRVAYARDYGDHIMGKFKFPTAYTILFVLIALVAAMTWIVPAGKYQMVTNAALGKEVPVAGTYAPVEAQPQGITAVLLAPIDGLYNHQTYTAGAIDVALFVLIIGGFLGVVNKTGAIDAGIERVTTRLNGREEWMIPILMALFAAGGTIYGMAEESLPFYTLLVPVMMAARFDPLVAAATVLLGSGIGTLGSTINPFATVIAANAAGIPFTQGILLRVILLLVGYVICVYWVMRYARKVRNSPESSIVADKMAENQAHFLGNRSETMLEFTPTRKAILILFAASFAFMIYGVAVLGWWMAEISAVFLAAAVIVGVIARMGEETFTSTFIDGARDLLGVALIIGIARGIVVVMDNGMITHTILHSAENLVSGLSTTVFINVTYWLEVLLSFLVPSSSGLAVLTMPIMAPLADFAHVQRDLVVTAYQSASGVVNLITPTSAVVMGGLAIARVPWVRYLRWVAPLLLILTMLNMIVLSIAAMI | failed
MMTPSRAEKSLTIVIPALNEQDKIADTIDGVLPLARELLDDFEIFLIDDGSTDATGAIMNEFAASDRRITVHHNAERRGVGAGFEYALSRAKFDAITLIPGDHAFQNEGIARMFKAVGAADMVITYRDNQSDRSVNRSIQSHSLRFVLNCMFGFWLSDYHSMIVYPVKWLRQIAVRADGYGYQICALISLLQLGLTYVQVPVSLNAELKGSSRALRLRTYLELIGTIVSLLRRVPIRDVDRDQVPVDAGRTPAR | failed
MLSGMSGGMLFIVFAWLIGHAVLRIVPTAYKPVLMVRSRGIALALSAIPLLLAYQLYEVVRVVQSQFSLSFQEAASTVIIQHPVGQSWFVVFTVTVFLGVLLLFPEKRVTANLFFVGVLLLIVSVSWVSHGTALLGWQGFVLNTSHLLASAVWIGTLLMVGWGARPLTDGLKFHRWFSLMVVCAVAVLSVSGLLLMNVIVPEYVPSWALTYGQFLLMKHLLFLPLLLFGLRHLLWLRAEKPLSVVQRSIRIESVVGCVVFFLSAFMTRQTPPHEVAETMQVEPPAWSFLLFHPEGLSVFQQLTLSLTGWGIACLVLAMIGLAASVLSLRHKSLFVFTTSSLTASLFLYVGLMLSVTPVSILVDETRYPTVEAAIQATYEDKTSIDIVLEDETEETTTVIYTVNAHDFVIEKLGIDSETDDFYRLPAAMLTVGGTSVYDEPMKIRTFQVTDGQWKETGSNYTYVTFGMIQEPKETVRLQLHYEDGSYVTELTNGVFYHVYQSDVEMSQPVIDLLAEDGTKVDQFLPAGVEQGVYCH | failed
MAVKHASAPKAYINITGLGFAKLTKEGAELKYSDITKTRGLQKIGVETGGELKTAYADGGPIESGNTDGEGKISLQMHAFPKEIRKIVFNEDYDEDGVYEEKQGKQNNYVAVWFRQERRDGTFRTVLLPKVMFTNPKIDGETAEKDWDFSSEEVEGEALFPLVDNKKSVRKYIFDSANMTNHGGDGEKGEEAFLKKILGEEYTGNVTEDNEETLLEHHHHHH | not failed
METTSVFRADFLSELDAPAQAGTESAVSGVEGLPPGSALLVVKRGPNAGSRFLLDQAITSAGRHPDSDIFLDDVTVSRRHAEFRLENNEFNVVDVGSLNGTYVNREPVDSAVLANGDEVQIGKFRLVFLTGPKQGEDLEHHHHHH | failed
MSTPSHLNAQPLVWGHGPRTFEVFLEPTCPYSVRAFNKLDDLLDEVGADNVTIKIRLQSQPWHLFSGVIVRCILAASTLPHGREQAHKVMQAVADHREEFEFTDHCSGPNMNATPQQIIERIERYSHVLLGAAFARPELQDVIKWHSKYARQNGIHVSPTFMVNGLVQPDLGSGDDVSVWAARIMA | failed
LEPRKKAEEALRKSEERFAKAFRMAPVPSLVLYGDDLQALDINQAFSETFGYQAEELLGESTVACGLWQDGGAERLGELLAQSGSVRNVQLRLQHKDRNGLDCLVSAEAVSLNEQDCVLVALLDIS | not failed
SNRQVQLMARQQRLKAIEDRLEKFYIPLIKAFSSYVYTAQTEDEIETIITCRRYLAGNNLLRVLPMHFKFKADKIAGSANWTFYAKEDFEQWKEALDVLWEEFLEVLKEYYTLSGTEISLPEKPDWLIGYK | not failed
ADWPDRFNLRKPFEKLLYSGSRTGFRLASERSAKQAKGPRKADPDGLFDLSFSDDQQMLVDMLEGFALEVLRPLAHDADAEASLPAELLNQALELGLTHYGVGEVHGGMAGERTTVTTALIAEALAKGDLTLAAALLVPLSAANCIRRWGSPSQQAQWLPAFVSEEGAPLTAIAVNEPSLLFDPQKLATRARRKGSHYLLSGEKCLVLRGLEASRLIVAAKTDEGPALFLVEASAKGVERRAEPAMGLKAGGTARLRLKSVKVPADNRLAAEHFDYRAFLDHASLAWCALALGTGQAALDYVIAYCNEREAFGEPISHRQGVAFMVADIAIELDAMRLMVWRACALAERGQPFQREAYLARLLCAEKAMKIGTDAVQLLGGHGFTKEHPAERWYR | failed
MSAISPNGAEEHPIGLTLNGQRLTLQVNPWTTLLDLLREQLDLVGTKKGCDHGQCGACTVLRDGKRVNACLTLAIMCDGAELVTIEGLASGDVLHPMQRAFITHDAFQCGYCTPGQICSAVGLAREGRAYTREAIREQMSGNLCRCGAYSNIVAAVEEALPLMTDLAPPQRGPNP | failed
MQRLLLASSLLLALSACSDKSAPANTADAAAPAAAPAATAPATAPELIPRDALFGNPERASVRISPDGKYLSWVAPLDGVLNVWVAPVDAPDKARAITKDTARGIRSYYWTYHSDTLLYLRDTGGDEDFHLYAVNLSDGSSKDLTPFKKTNAEVYGISDQHPDAIMVGMNDRDAKWHDLYKVELASGTRTLVQKNTDSLDSYLLDGNYQLRYATRATDDAGRELLVPEGKGWKSVDRIPFEDVTNTAPAGLTDDGKTLYMLDSRNRDTAALYAIDTASNARTLLFEDARADAGSTLNDPKTGVVQAVSTDYLREEWKTLDTSIAADLQKLKSLGPGDAGIAARTLDDRTWIVAYSAAETPLTYYRYDRADGGKLTKLFSARPALEGKPLVPMWPQEIAARDGLKLVSYLSLPAEADSNHDGKADKAVPLVLFVHGGPWARDSYGYGAYEQWLANRGYAVLSVNFRGSTGFGKAFTNAGNGEWAGKMHYDLLDAVQWAVKQGVTTPQDVAIMGGSYGGYATLVGMTFTPDAFKCGVDIVGPANLNTLLGTVPPYWASFYKQLTKRMGDPATAAGKQWLTERSPLSHVDKISKPLLIGQGANDPRVKQAESDQIVNAMKAKNIPVTYVLFPDEGHGFQRPENSKAFNAVTEGFLSQCLGGRAQPIGADFEGSSITVPEGADRITGLADALKTHTQAIRK | failed
MDLMAYWLCITNEDNWKVIKEKKIWGVAERYKNTINKVKVGDKLIIYEIQRSGKDYKPPYIRGVYEVVSEVYKDSSKIFKPTPRNPNEKFPYRVKLKEIKVFEPPINFKELIPKLKFITNKKRWSGHLMGKAMREIPEEDYKLIVGN | not failed
IEFESRTTDEGVAVVRPAGRLNMVAAPRLRELLRDVVDGGTTCVVVDLSATDFIDSSGLGALIAGLKAARQAGGDLRIAQPTEQVETVLALTNLNRVLRTHDSVDAAFD | failed
MGHHHHHHENLYFQSHMTDFVELMNSMSSTFNSDCATSTAEGGTLLNLNLAEDKTLKWRNLANNQFASKEKKHKDKEEEERKEARNQEEIEDIKALLADVVDAAAVKLEEEEAQNAEKVEPHTKCEIEEEGRKEMEYDQDVAKQDSEMEKKQNGKATSITVKMES | not failed
MSSAIRKAAKGGQCTPNIAGVCNDNPETVVLCRFPGETHGAGLKSGGLGAGFGCGCRRGAIDGRGAGLSREDKEFYMRRSQLRTIRRLEALGVVGVKGRLK | failed
MASKSSFMATFNIVTLMLMVASSTVTARPLMKPSMGTSSPTTSLVYRLKLDEDTGYCWDSLMQLQHCSGELILFFLNGETYIGPGCCSAIRTIGRKCWPTMIGVLGFTAQEGDMLQGYCDGNDSDNNGEDHALASSTLPLSVNFKTTVVRSSASPSNP | failed
MDIRRIVLYMALALIGLSLWNAWQIDYPAKQPVEEKTASQLTSDGHLLPQIIPSNAEQPVTLKAEEKASSGKQLIQVKTDVLDVDIDLKNGDIVKGLLLDYPLSVEDKNKPFPLLQNQASQRYVANSSLFVLDGQTPQSLDFDFTSEKEYYELKPDQNQLIVTLNGKSEDGLDVKKEFVFTKGSYLIEVNYKIANTGNSLWKGYFNTQLLRSSPKEDKSSIFHIGSYTGASFSNPGKNRYQKVSFSDMSKSNLDVDAKGGWIAMQQHYFLSAWVPNADSENKFYTLATDKDYTIGAVSQPITVKPKEDKIVGSKLYIGPEITSVLKGISPSLDLTVDYGILWFLSSLLFSLMKAIYTVVGNWGWSIVLVTVLIKLAFYRLSATSYKSMASMRKLQPKLQALRERYGDDKAKISQATMELYKQEKVNPLGGCLPILIQIPVFIALYWVLLESVELRQAPFIFWINDLASADPYHVLPLIMGATMLIQQKLNPAPADPMQAKVMMFLPILFTGLFWNFPSGLVLYWIVNNTLSILQQWYITRKYSDEKPAKKVVATAK | failed
MATPQDKLHTVRLFGTVAADGLTMLDGAPGVRFRLEDKDNTSKTVWVLYKGAVPDTFKPGVEVIIEGGLAPGEDTFKARTLMTKCPLEHHHHHH | not failed

From a protein production outcome set (Wang et al. 2014)
